Assay results from article PMC10616141.
Changes are numbered by the printed parent chain.

Target: Orai1-CFP, Q96D31
Assay: E-FRET in cells (Orai1-CFP / STIM1-YFP)
Settings: chain shown with the change, HEK-S1S2dKO-O1CFP cells, store-depletion with 2.5 µM ionomycin, parent: est. 0.11, read off a plot

Chain of Orai1-CFP, Q96D31 (Q96D31 whole entry): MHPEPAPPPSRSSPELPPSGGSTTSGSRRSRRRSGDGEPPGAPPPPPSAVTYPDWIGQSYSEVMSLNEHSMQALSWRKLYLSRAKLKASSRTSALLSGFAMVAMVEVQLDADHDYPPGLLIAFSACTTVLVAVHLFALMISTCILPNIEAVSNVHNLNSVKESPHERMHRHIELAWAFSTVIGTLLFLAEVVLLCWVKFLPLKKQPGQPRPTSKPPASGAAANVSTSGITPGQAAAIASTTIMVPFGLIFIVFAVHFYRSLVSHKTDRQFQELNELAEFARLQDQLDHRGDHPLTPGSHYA

B1: STIM1-YFP-WT, Q13586 F394del (protein)
chain: LSHSHSEKATGTSSGANSEESTAAEFCRIDKPLCHSEDEKLSFEAVRNIHKLMDDDANGDVDVEESDEFLREDLNYHDPTVKHSTFHGEDKLISVEDLWKAWKSSEVYNWTVDEVVQWLITYVELPQYEETFRKLQLSGHAMPRLAVTNTTMTGTVLKMTDRSHRQKLQLKALDTVLFGPPLLTRHNHLKDFMLVVSIVIGVGGCWFAYIQNRYSKEHMKKMMKDLEGLHRAEQSLHDLQERLHKAQEEHRTVEVEKVHLEKKLRDEINLAKQEAQRLKELREGTENERSRQKYAEEELEQVREALRKAEKELESHSSWYAPEALQKWLQLTHEVEVQYYNIKKQNAEKQLLVAKEGAEKIKKKRNTLFGTHVAHSSSLDDVDHKILTAKQALSEVTAALRERLHRWQQIEILCGFQIVNNPGIHSLVAALNIDPSWMGSTRPNPAHFIMTDDVDDMDEEIVSPLSMQSPSLQSSVRQRLTEPQHGLGSQRDLTHSDSESSLHMSDRQRVAPKPPQMSRAADEALNAMTSNGSHRLIEGVHPGSLVEKLPDSPALAKKALLALNHGLDKAHSLMELSPSAPPGGSPHLDSSRSHSPSSPDPDTPSPVGDSRALQASRNTRIPHLAGKKAVAEEDNGSIGEETDSSPGRKKFPLKIFKKPLKK
**Q.** How did the response (n = 106 (WT n = 579)) turn out when B1 was run?
**A.** 0.003

B2: STIM1-YFP-WT, Q13586 H398del (protein)
chain: B1 chain with H372F, V373H, A374V, H375A
**Q.** Which response (n = 100 (WT n = 579)) does the source give for B2 here?
**A.** 0.07

B3: STIM1-YFP-WT, Q13586 H395del (protein)
chain: B1 chain with H372F
**Q.** How did the response (n = 207 (WT n = 579)) turn out when B3 was run?
**A.** 0.082

B4: STIM1-YFP-WT, Q13586 H395del; V396del (protein)
chain: LSHSHSEKATGTSSGANSEESTAAEFCRIDKPLCHSEDEKLSFEAVRNIHKLMDDDANGDVDVEESDEFLREDLNYHDPTVKHSTFHGEDKLISVEDLWKAWKSSEVYNWTVDEVVQWLITYVELPQYEETFRKLQLSGHAMPRLAVTNTTMTGTVLKMTDRSHRQKLQLKALDTVLFGPPLLTRHNHLKDFMLVVSIVIGVGGCWFAYIQNRYSKEHMKKMMKDLEGLHRAEQSLHDLQERLHKAQEEHRTVEVEKVHLEKKLRDEINLAKQEAQRLKELREGTENERSRQKYAEEELEQVREALRKAEKELESHSSWYAPEALQKWLQLTHEVEVQYYNIKKQNAEKQLLVAKEGAEKIKKKRNTLFGTFAHSSSLDDVDHKILTAKQALSEVTAALRERLHRWQQIEILCGFQIVNNPGIHSLVAALNIDPSWMGSTRPNPAHFIMTDDVDDMDEEIVSPLSMQSPSLQSSVRQRLTEPQHGLGSQRDLTHSDSESSLHMSDRQRVAPKPPQMSRAADEALNAMTSNGSHRLIEGVHPGSLVEKLPDSPALAKKALLALNHGLDKAHSLMELSPSAPPGGSPHLDSSRSHSPSSPDPDTPSPVGDSRALQASRNTRIPHLAGKKAVAEEDNGSIGEETDSSPGRKKFPLKIFKKPLKK
**Q.** Which response (n = 87 (WT n = 579)) does the source give for B4 here?
**A.** 0.074

B5: STIM1-YFP-WT, Q13586 V396del; A397del (protein)
chain: B4 chain with A373H
**Q.** With B5 as the binder, how does the response (n = 107 (WT n = 579)) read?
**A.** 0.034
